The results in this text go back to article PMC11601447.

Assay [1] has as its target bortezomib-bound hClpP (human) (UniProt Q16740). The assay can be described thus: cryo-EM structure.
Assay [2] concerns the target hClpP^dCTE-S153A (human) (UniProt Q16740). The assay can be described thus: cryo-EM structure.
The target in assay [3] is hClpX E285A (human) (UniProt O76031). The assay can be described thus: negative stain EM.

For “bortezomib-bound hClpP (from UniProt Q16740 58-277) (enzyme)”, the stoichiometry N (usually the number of molecules, sites or subunits per partner or assembly) in assay [1] was found to be 14.
Consider “hClpP^dCTE-S153A (from UniProt Q16740 58-277) (enzyme)”, for which the stoichiometry N in assay [2] came to 14.
“hClpX E285A (from UniProt O76031 57-633) (enzyme)” yielded a stoichiometry N in assay [3] of 6.
